Experiment: soluble on expression in E. coli; label from the status in PepcDB or PDB records

| Sequence | soluble on expression in E. coli |
| --- | --- |
| MKNNKPICFYDIYCFKPQECFKRNDINLLEDKLKRYSKITFLRNKENPEIIFLLGGDGSFINFINQQWKKNVKIVGINYGQLGFYSSYDSIKTINLDEIIDENMYYNPLLLKVSINNQNFFYCLNELSLFSNELVSFDISINDYPYEKFRGSGLLFVTPSGSTGKNKTAFGPIIFNNHENFIMTEIFPVNHLKYSSLNAPVVFRKDYKISLTNIKFKKSFSVAIDGNIINFSDKINDIKVETIQASSKIHGLNNFKKYIDKLNKSFIKGEMAGDPLEHHHHHH | soluble |
| MKNTGTSVKFGESSTQALIRAAYRQVFGRDLYEGQRLSVAEIQLENGDISVREFIKRLAKSELFLKLYWAPHYVCKAIEYMHRRLLGRPTYGRQEMNQYFDIASKQGFYAVVEAMIDSKEYSDAFGEDTVPYERYLTPGGLEHHHHHH | not soluble |
| MKPAAREARLPPRSPGLRWALPLLLLLLRLGQILCAGGTPSPIPDPSVATVATGENGITQISSTAESFHKQNGTGTPQVETNTSEDGESSGANDSLRTPEQGSNGTDGASQKTPSSTGPSPVFDIKAVSISPTNVILTWKSNDTAASEYKYVVKHKMENEKTITVVHQPWCNITGLRPATSYVFSITPGIGNETWGDPRVIKVITEPIPVSDLRVALTGVRKAALSWSNGNGTASCRVLLESIGSHEELTQDSRLQVNISGLKPGVQYNINPYLLQSNKTKGDPLGTEGGLDASNTERSRAGSPTAPVHDESLVGPVDPSSGQQSRDTEVLLVGLEPGTRYNATVYSQAANGTEGQPQAIEFRTNAIQVFDVTAVNISATSLTLIWKVSDNESSSNYTYKIHVAGETDSSNLNVSEPRAVIPGLRSSTFYNITVCPVLGDIEGTPGFLQVHTPPVPVSDFRVTVVSTTEIGLAWSSHDAESFQMHITQEGAGNSRVEITTNQSIIIGGLFPGTKYCFEIVPKGPNGTEGASRTVCNRTGKQI | soluble |
| MKPADIDKLISEIRTAIYAEQSHRKIIEIDPDIYRKVRAALSDLQAEASEYFQKQDIENYLTMNNRFQTLKRDFRSLFQRRFEKIVAKAIYDISGETLSLLTDEEKEFIEKIHNIITEEFESFIPKREEKNEARAEAQPAPADESPTAIADQKPQEEPQVVQDQHQPPAEIPSENIEIKKEDGRYVLVMITEDLPPIAQLDRNYSLHSNDLVYLPQDLASILAKRKVALVLDQ | soluble |
| MKPKKRQMEYLTRGLIAVQTEQGVFVSWRFLGTDHETTAFHLYRDGKRITRDPIAESTNFLDQNGTADSVYQVAAVNKGREEKLSKKARVWQENVLEVPLAKPEGGVTPDGKPYTYSANDASVGDIDGDGEYEMILKWDPSNSKDNAHDGYTGEVLIDAYKLDGTFLWRINLGRNIRAGAHYTQFMVYDLDGDGKAEIAMKTADGTTDGKGHIIGDEQADFRNEQGRILSGPEYLTVFKGETGEALTTVEYEPPRGKLEDWGDGYGNRMDRFLAGTAYLDGERPSLVMARGYYTRTVLVAYDFRNGRLKKRWVFDSNQPGHEAYAGQGNHSLSVADVDGDGKDEIIYGAMAVDHDGTGLYSTGLGHGDAMHVGDLDPSRKGLEVFQVHEDATKPYGLSLRDAGTGEILWGVHAGTDVGRGMAAHIDPSYKGSLVWGIDPPGNDGMSYGLFTSKGEKISDKAPSSANFAIWWDGDLVRELLDHDWDGTIGRPKIEKWDAENGCLKTIFQPAGVLSNNGTKGNPVLQANLFGDWREEVIWRTEDSSALRIYTTTHLTRHCFYTLMHDPVYRLGIAWQNTAYNQPPHTSFYLGTGMKKPPKPALYIAGSKAEAPLLEHHHHHH | soluble |
| MKPKVVRYLDEGEFPLAEEEALRLYRAMRRARFFDEKALTLQRQGRLGVYAPFMGQEAAQVGVALALEERDWVVPSYRESAMLLAKGLPIHTLILYWRAHPAGWRFPEGVRAVNPYIPIATQIPQAVGLALAGRYRGEDWVVATSIGDGGTSEGDFHEGLNFAAVFGAPVVFLVQNNGYAISVPKSRQMKVDYVARRAEGYGMPGVVVDGNDAFAVYLEAKKAVERARKGEGPTLLEALTYRLAPHTTSDDPSRYRSKEEEEAWRAKDPILRLRKALEGRGLWGEEAEKALLLELEEEFQRELALADEAPEPRPEEIVEHVYAEMGPDQRRAWEALRRGLHVEEVE | soluble |
| MKPLTDTDYIHALIAEGEHQQQDFKFEISDTRKIAKTLSAFANTDGGRLLIGVKDNGKIAGVRSDEEKYMIEAAAQLYCWPEVDYSMQTFHVEGRSVLVVQIDESEHKPVFAKDENGKSLAYIRIKDENILATPVHLRVWQQSGSPAGELIRYTEREQLLLDLLEENTSLSLNRYCRQAGISRRAAEHLLAKFIRFDIVEPIFENHKFYFRLKLEHHHHHH | soluble |

— the DeepSol protein solubility set
